Source: patent US20210347873A1 (SHANGHAI PHARMAEXPLORER, published 2021)

How the values were obtained:
[1] = target: human BLyS (full length, arginine to histidine at position 132) on CHO-K1 cells (human) (UniProt Q9Y275); assay: flow cytometry, CHO-K1 hBLyS cells, antibody 13.3 nM
[2] = target: T1, hBLyS-ECD (His-tagged extracellular domain of human BLyS protein, Ala134-Leu285) (human, UniProt Q9Y275 134-285); assay: SPR (Biacore X100), antibody captured by anti-human Fc on CM5, hBLyS-ECD injected
T1 construct: Expressed in HEK293, purified on Ni column; also called immunogen
Protocol: Affinity constants were determined using a Biacore X100 instrument (purchased from GE Healthcare). Detailed operations and methods referred to the instrument manuals and detailed methods provided by manufacturers, specifically: determining affinity constant using a CM5 chip (Sensor Chip CM5, purchased from GE Healthcare). […] Then 1 M ethanolamine was injected in chip to block the remaining activation sites. After the antibody to be tested (i.e., the human BLyS antibody prepared by Embodiment 2) was captured by chip, 7 different gradient of immunogen dilutions (i.e., hBLyS-ECD) prepared by Embodiment 1 were injected and the binding and dissociation of antigen with antibody was detected by a Biacore instrument. The dissociation constant and binding constant were then fitted by Biacore X100 Evaluation Software 2.0, while the affinity constant was the ratio of dissociation constant to binding constant.

biotinylated hBLyS-ECD [3] = target: T2, biotinylated hBLyS-ECD (human, UniProt Q9Y275 134-285, biotinylated with Biotin-X-X-NHS (molar ratio 7:1), sites not stated); assay: ELISA, biotinylated hBLyS-ECD captured on streptavidin; antibody 13.3 nM
T2 construct: The hBLyS-ECD of Embodiment 1 after biotinylation (Embodiment 2); also called biotinylated immunogen; BLyS protein; not shown: His tag of the pCPC vector
Protocol: (§1) Streptavidin was first diluted to a final concentration of 1.0 μg/mL with PBS, and then 50 μL of diluted streptavidin per well was aliquoted into 96-well ELISA plate, which was subsequently sealed with plastic film and incubated at 4° C. overnight. On the next day the plate was washed four times with the plate washing buffer [PBS buffer containing 0.05% (v/v) Tween20] and added with the blocking solution [PBS buffer containing 0.05% (v/v) Tween20 and 1% (w/w) BSA] and blocked for 2 hours at 37° C. The blocking solution was removed, the biotinylated hBLyS-ECD prepared in Embodiment 2 was diluted with PBS to a final concentration of 50 ng/mL and then aliquoted into the 96-well ELISA plate at 50 μL per well and incubated for 1 hour at 37° C. After rinsing the plate four times with the plate washing buffer [PBS buffer containing 0.05% (v/v) Tween20], 100 μl of the purified lead antibody harvested in Embodiment 1 and 2 was pipetted into each well. After incubation for 1 hour at 37° C., the plate was rinsed four times with the plate washing buffer [PBS buffer containing 0.05% (v/v) Tween20]. HRP-labeled (horseradish peroxidase) secondary antibody (purchased from Sigma) was added in and incubated at 37° C. for 1 hour. The plate was then rinsed four times with the plate washing buffer [PBS buffer containing 0.05% (v/v) Tween20]. 100 μL of TMB substrate was aliquoted into each well and after incubation for 5 minutes at room temperature, 100 μL of stop solution (1.0 N HCl) was aliquoted into each well. A₄₅₀ₙₘ values were read via an ELISA plate reader (SpectraMax M5e purchased from Molecular Devices) and the results were shown in FIGS. 5A-5B and Table 10.

biotinylated hBLyS-ECD [4] = target: T2, biotinylated hBLyS-ECD; assay: ELISA, biotinylated hBLyS-ECD captured on streptavidin; antibody 66.7 nM
Protocol: as §1

biotinylated hBLyS-ECD [5] = target: T2, biotinylated hBLyS-ECD; assay: ELISA, biotinylated hBLyS-ECD captured on streptavidin; antibody 0.107 nM
Protocol: as §1

human APRIL protein = target: T3, human APRIL protein (human, UniProt O75888 105-250, limits assumed); assay: ELISA: APRIL coated at 1.0 µg/mL, antibody titrated, HRP secondary antibody
T3 construct: Bought protein; also called recombinant APRIL protein
T3 sequence (looked up): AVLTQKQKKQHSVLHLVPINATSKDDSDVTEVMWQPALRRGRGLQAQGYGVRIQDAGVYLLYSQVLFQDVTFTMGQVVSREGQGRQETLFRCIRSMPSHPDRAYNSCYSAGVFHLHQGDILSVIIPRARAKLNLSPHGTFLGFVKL
Protocol: To test whether the BLyS antibody cross-reacted with human APRIL protein, APRIL protein (purchased from R & D Systems) was first diluted to a final concentration of 1.0 μg/mL with PBS, and then 50 μL of which per well was aliquoted into a 96-well ELISA plate, and the plate was subsequently sealed with plastic film and incubated at 4° C. overnight. On the next day the plate was rinsed four times with the plate washing buffer [PBS buffer containing 0.0500 (v/v) Tween20] and a blocking solution [PBS buffer containing 0.05 (v/v) Tween20 and 1 (w/w) BSA] was added, then the protein was blocked at 37° C. for 2 hours. The blocking solution was removed and 100 μL per well of the lead antibodies prepared in Embodiment 1 and 2 were added in. After incubation for 1 hour at 37° C., the plate was rinsed four times with the plate washing buffer [PBS buffer containing 0.05 (v/v) Tween20]. HRP-labeled (horseradish peroxidase) secondary antibody (purchased from Sigma) was added in and incubated at 37° C. for 1 hour. The plate was then rinsed four times with the plate washing buffer [PBS buffer containing 0.050 (v/v) Tween20]. 100 μL of TMB substrate was aliquoted into each well and after incubation at room temperature for 5 minutes, 100 μL of stop solution (1.0 N HCl) was aliquoted into each well. A₄₅₀ₙₘ values were read via an ELISA plate reader (SpectraMax M5e purchased from Molecular Devices) and the results were shown in FIGS. 6A-6B and Table 11. […] As used herein, the IgG control is human IgG and the data in the table is GD number at 450 nm.

biotinylated hBLyS-ECD [6] = target: T4, biotinylated hBLyS-ECD (human, UniProt Q9Y275 134-285, biotinylated with Biotin-X-X-NHS (molar ratio 7:1); sites not stated); assay: ELISA on captured biotinylated hBLyS-ECD; antibody 0.534 nM
T4 construct: also called biotinylated immunogen; biotinylated hBLvS-ECD

biotinylated hBLyS-ECD [7] = target: T4, biotinylated hBLyS-ECD; assay: ELISA on captured biotinylated hBLyS-ECD; antibody 0.107 nM
biotinylated hBLyS-ECD [8] = target: T4, biotinylated hBLyS-ECD; assay: ELISA on captured biotinylated hBLyS-ECD; antibody 0.0213 nM

T2 sequence (Q9Y275 134-285): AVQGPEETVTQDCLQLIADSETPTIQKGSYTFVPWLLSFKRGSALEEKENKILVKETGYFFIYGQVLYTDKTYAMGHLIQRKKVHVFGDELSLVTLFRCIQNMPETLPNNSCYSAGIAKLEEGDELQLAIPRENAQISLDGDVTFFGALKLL
T4 sequence (Q9Y275 134-285): as above
Sequence of human BLyS (full length, arginine to histidine at position 132) on CHO-K1 cells (human) (Q9Y275 whole entry R130H, the tested form may be a part): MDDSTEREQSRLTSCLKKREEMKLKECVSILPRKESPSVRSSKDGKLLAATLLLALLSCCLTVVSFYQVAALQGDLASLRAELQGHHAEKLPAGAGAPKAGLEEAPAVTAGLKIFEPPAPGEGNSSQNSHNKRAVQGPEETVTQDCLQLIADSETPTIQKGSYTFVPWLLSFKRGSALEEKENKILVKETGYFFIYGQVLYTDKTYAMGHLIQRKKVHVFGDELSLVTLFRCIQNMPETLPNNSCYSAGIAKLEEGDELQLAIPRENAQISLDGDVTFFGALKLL

For mIgG Control (antibody), which MFI [1] is on record?
Its MFI is 31.7 MFI.

hIgG Control (antibody) was tested. Which MFI [1] did it give?
The MFI was 35.1 MFI.

B1: L1D12 (antibody, V domains shown)
VH: QVQLVQSGGGLVQPGGSLRLSCAASGFTVSSNYMSWVRQAPGKGLEWVSVIYSGGSTYYADSVKGRFTISRDNSKNTLYLQMNSLRAEDTAVYYCARGFHDILTGYGMDVWGQGTTVTVSS
VL: SSELTQDPAVSVALGQTVRITCQGDSLRNYYAGWYQQKPGQAPVLVIYGKNNRPSGIPDRFSGSSSGNTASLTITGTQAEDEADYYCSSRDNSGTHLVEFGGGTKLTVL
notes: From a human naive scFv phage library; also called human BLyS antibody L1D12; LID12
For B1, which Kd [2] is on record?
The Kd was 2.42 nM.

What about the koff [2] of the same molecule?
Its koff is 0.00136 s⁻¹.

What about the kon [2] of the same molecule?
Its kon is 561000 M⁻¹ s⁻¹.

B2: L1D12 (antibody, human IgG1, V domains shown)
VH: QVQLVQSGGGLVQPGGSLRLSCAASGFTVSSNYMSWVRQAPGKGLEWVSVIYSGGSTYYADSVKGRFTISRDNSKNTLYLQMNSLRAEDTAVYYCARGFHDILTGYGMDVWGQGTTVTVSS
VL: SSELTQDPAVSVALGQTVRITCQGDSLRNYYAGWYQQKPGQAPVLVIYGKNNRPSGIPDRFSGSSSGNTASLTITGTQAEDEADYYCSSRDNSGTHLVEFGGGTKLTVL
notes: also called LID12
How did the OD450 nm (biotinylated hBLyS-ECD [3]) turn out when B2 was run?
Its OD450 nm is 1.61.

And the OD450 nm (biotinylated hBLyS-ECD [4])?
The OD450 nm was 1.75.

And the OD450 nm (biotinylated hBLyS-ECD [5])?
Its OD450 nm is 0.678.

Does B2 bind (human APRIL protein)?
Result: no binding (tested: 66.7 nM)

B3: 2-1G11 (antibody, V domains shown)
VH: EVQLVESRGGVVQPGRSLRLSCAASGFTFSSYGMHWVRQAPGKGLEWVAVISYDGSNKYYADSVKGRFTISRDNSKNTLYLQMNSLRAEDAAVYYCARDRVDILTGYSIYGMDVWGQGTTVTVSS
VL: EIVMTQSPATLSLSPGERATLSCRASQSVSSYLAWYQQKPGQAPRLLIYDASKRATGIPARFSGSGSGTDFTLTISSLEPEDFAVYYCQQRSNWPLTFGGGTKVEIK
notes: From a human naive scFv phage library; also called human BLyS antibody 2-1G11
What does the source list for B3?
Kd [2]: 0.637 nM; koff [2]: 0.000946 s⁻¹; kon [2]: 1.48e+06 M⁻¹ s⁻¹

B4: L9G7 (antibody, human IgG1, V domains shown)
VH: QIQLVQSGAEVKKPGASVKVSCKASGYTFTSYGISWVRQAPGQGLEWMGWISAYNGNTNYAQKLQGRVTMTTDTSTSTAYMELRSLRSDDTAVYYCARTYYDILTGYYYYGMDVWGQGTTVTVSS
VL: EIVLTQSPGTLSLSPGERATLSCRTSQSVDTYLAWYQQKPGQAPRLLIYDASNRATGIPARFSGSGSGTDFTLTISSLEPEDFAVYYCQQRSNWPLTFGGGTKVEIK
With B4 as the molecule, how does the OD450 nm (biotinylated hBLyS-ECD [3]) read?
Its OD450 nm is 1.6.

What about the OD450 nm (biotinylated hBLyS-ECD [4]) of the same molecule?
Its OD450 nm is 1.81.

And the OD450 nm (biotinylated hBLyS-ECD [5])?
Its OD450 nm is 0.528.

Does B4 bind (human APRIL protein)?
Result: no binding (tested: 66.7 nM)

B5: L9G7 (antibody, V domains shown)
VH: QIQLVQSGAEVKKPGASVKVSCKASGYTFTSYGISWVRQAPGQGLEWMGWISAYNGNTNYAQKLQGRVTMTTDTSTSTAYMELRSLRSDDTAVYYCARTYYDILTGYYYYGMDVWGQGTTVTVSS
VL: EIVLTQSPGTLSLSPGERATLSCRTSQSVDTYLAWYQQKPGQAPRLLIYDASNRATGIPARFSGSGSGTDFTLTISSLEPEDFAVYYCQQRSNWPLTFGGGTKVEIK
notes: From a human naive scFv phage library; also called human BLyS antibody L9G7
What does the source list for B5?
Kd [2]: 0.525 nM; koff [2]: 0.000244 s⁻¹; kon [2]: 465000 M⁻¹ s⁻¹

B6: 111D10D6G3 (antibody, V domains shown)
VH: QVQLQQPGAELVKPGASVKMSCKASGYTFTRHWITWVKQRPGQGLEWIGDIFPGSGSINYNEKFKSEATLTVEKSSSTAYMQLSSLTSEDSAVYYCARGDVDVWGTGTTVTVSS
VL: DIQMTQSPSSLSASLGERVSLTCRASQEIRGYLSWLQQKPNGTIKRLIYAASTLDSGVPKRFSATRSGSDFSLTISSLESEDFADYYCLQYASYPFTFGSGTKLEIK
notes: Mouse hybridoma antibody purified on Protein G
With B6 as the molecule, how does the OD450 nm (biotinylated hBLyS-ECD [3]) read?
Its OD450 nm is 1.78.

And the OD450 nm (biotinylated hBLyS-ECD [4])?
Its OD450 nm is 1.94.

What about the OD450 nm (biotinylated hBLyS-ECD [5]) of the same molecule?
Its OD450 nm is 0.613.

Does B6 bind (human APRIL protein)?
Result: no binding (tested: 66.7 nM)

B7: c97A3C2H4 (antibody, V domains shown)
VH: EVKLVESGGGLVQPGGSLKLSCAASGFTFSTYTMSWVRQTPEKRLEWVAYISYGGGSTSYPDTVKGRFTISRDNAKNTLYLQMSSLKSEDTAIYYCTRHVTVVENSMDYWGQGTSVTVSS
VL: DILLTQSPDILSVSPGERVSFSCRASQSIGTSIHWYQQRTNGSPRLLIKYVSESFSGTPSRFSGSGSGTAFTLTINSVESEDIADYYCQQTHSWPWTFGGGTKLEIK
notes: also called chimeric antibody c97A3C2H4
Which results are given for B7?
OD450 nm (biotinylated hBLyS-ECD [6]): 3.26 OD450 nm; OD450 nm (biotinylated hBLyS-ECD [7]): 1.19 OD450 nm; OD450 nm (biotinylated hBLyS-ECD [8]): 0.374 OD450 nm

B8: 97A3C2H4 (antibody, V domains shown)
VH: EVKLVESGGGLVQPGGSLKLSCAASGFTFSTYTMSWVRQTPEKRLEWVAYISYGGGSTSYPDTVKGRFTISRDNAKNTLYLQMSSLKSEDTAIYYCTRHVTVVENSMDYWGQGTSVTVSS
VL: DILLTQSPDILSVSPGERVSFSCRASQSIGTSIHWYQQRTNGSPRLLIKYVSESFSGTPSRFSGSGSGTAFTLTINSVESEDIADYYCQQTHSWPWTFGGGTKLEIK
notes: as for B6
B8 was tested. Which OD450 nm (biotinylated hBLyS-ECD [3]) did it give?
Its OD450 nm is 2.82.

What about the OD450 nm (biotinylated hBLyS-ECD [4]) of the same molecule?
The OD450 nm was 2.98.

What about the OD450 nm (biotinylated hBLyS-ECD [5]) of the same molecule?
The OD450 nm was 0.899.

Does B8 bind (human APRIL protein)?
Result: no binding (tested: 66.7 nM)

B9: c8E7D9C7F5 (antibody, V domains shown)
VH: QVQLQQSGVELARPGASVKLSCKASGYTFTSYGISWVKQRTGQALEWIGEIYPRSGNTYYNEKFKGKATLTADKSSSTAYMELRSLTSEDSAVYFCARSGPITTLVATDYGMDYWGQGTSVTVSS
VL: DIVLTQSPASLAVSLGQRATISCRASKSVSTSSYSYMHWYQQKPGQPPKLLIKFASNLESGVPARFSGSGSGTDFTLNIHPVEEEDAATYYCQHSREFPYTFGGGTKLEIK
notes: also called chimeric antibody c8E7D9C7F5
What does the source list for B9?
OD450 nm (biotinylated hBLyS-ECD [6]): 3.07 OD450 nm; OD450 nm (biotinylated hBLyS-ECD [7]): 1.28 OD450 nm; OD450 nm (biotinylated hBLyS-ECD [8]): 0.508 OD450 nm
